Here are results for one molecule from paper PMC7904604.

This data set has as its target GST-BLMP-1(ZnFs) (Caenorhabditis elegans, UniProt Q93560 508-642). The experiment in a line: competition.

Chain of GST-BLMP-1(ZnFs) (Q93560 508-642): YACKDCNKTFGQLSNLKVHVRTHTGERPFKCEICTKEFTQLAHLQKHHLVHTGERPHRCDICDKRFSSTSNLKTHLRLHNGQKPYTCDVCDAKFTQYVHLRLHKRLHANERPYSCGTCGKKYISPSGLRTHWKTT

B1: non-specific sequence (dsDNA)
DNA 1: GGCTCTTCCGGTCGTGCAAGAGGAAATACAAAAAA
DNA 2: TTTTTTGTATTTCCTCTTGCACGACCGGAAGAGCC
B1: the binding result is given as “no binding”.
